Reference: IntAct's records for PubMed 20952573

B1: Transcriptional regulatory protein RcsB (Escherichia coli (strain K12)), P0DMC7 (parent)
chain: MNNMNVIIADDHPIVLFGIRKSLEQIEWVNVVGEFEDSTALINNLPKLDAHVLITDLSMPGDKYGDGITLIKYIKRHFPSLSIIVLTMNNNPAILSAVLDLDIEGIVLKQGAPTDLPKALAALQKGKKFTPESVSRLLEKISAGGYGDKRLSPKESEVLRLFAEGFLVTEIAKKLNRSIKTISSQKKSAMMKLGVENDIALLNYLSSVTLSPADKD
partner: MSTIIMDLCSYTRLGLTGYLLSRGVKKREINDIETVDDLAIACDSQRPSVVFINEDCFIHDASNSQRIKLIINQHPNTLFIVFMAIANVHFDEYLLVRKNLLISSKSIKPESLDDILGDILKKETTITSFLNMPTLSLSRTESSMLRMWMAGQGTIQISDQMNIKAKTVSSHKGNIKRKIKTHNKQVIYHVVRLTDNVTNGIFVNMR

Variants of: B1
Details: with rcsa_ecoli rcsA

effect of a mutation on the interaction	Variant
decreasing interaction	D56E
